In the supplement of paper PMC10567573:
± gives the standard deviation.

Assay: protein stability index of a GFP-peptide fusion (GPS, HEK-293T) (PSI 1-6); higher = more stable
[1] = treatment: DMSO, c terminus: a fixed tail appended
[2] = treatment: MLN4924 1 uM, 8 h, c terminus: a fixed tail appended
[3] = treatment: DMSO, c terminus: native
[4] = treatment: MLN4924 1 uM, 8 h, c terminus: native
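Note: 24-mer peptide tiles fused after GFP, lentivirally expressed, FACS-sorted into six equal bins by GFP/DsRed ratio, decoded by Illumina sequencing, PSI is the read-weighted mean bin number.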

Sequence	protein stability index [1]	protein stability index [2]	protein stability index [3]	protein stability index [4]
DFLCLLGVSYTFDNEDSELNGDYG [MIA2]	2.24 ± 0.39	2.34 ± 0.44		
DGSKSEDELDQASTPTDVRDIDL [CCND2]			4.41 ± 0.26	4.71 ± 0.33
DHPLPEVAHVKHLSASQKALKEKE [COX4I1]	5.43 ± 0.18	5.47 ± 0.17		
DIIRKQVLGTKVDAERDGVKVPTT [CDC34]	4.2 ± 0.34	4.23 ± 0.17		
DISETFNHANGLTLVSRAHQLVME [PPP2CA]	2.79 ± 0.12	2.82 ± 0.29		
DKDENKLSEASGGRAENGERSDLE [ZC3H15]	5.45 ± 0.24	5.45 ± 0.28		
DKELLCCSCQADPRHQGHRVQPVK [TRIM35]	3.56 ± 0.32	4.06 ± 0.3		
DKKVRTIIIRSEVPGIFCAGADLK [AUH]	2.12 ± 0.27	2.11 ± 0.38		
DLPKAKTRAADLLVNPLDPRNADK [SRPK2]	4.85 ± 0.24	5 ± 0.29		
DLRHLRAVPTDEARAFAEKNGLSF [RAB11A]	3.54 ± 0.2	3.52 ± 0.22		
DLRHLRAVPTDEARAFAEKNNLSF [RAB11B]	3.63 ± 0.15	3.54 ± 0.23		
DLVERALYSMECAFHPLFSLTSGA [TCF25]	3.09 ± 1.3	2.84 ± 0.93		
DMENKENGSVGVKNSMENGRPPDP [SAMD13]	5.11 ± 0.27	5.15 ± 0.32		
DPACYEFLWGPRALIETSYVKVLH [MAGEA6]	2.26 ± 0.78	2.21 ± 0.22		
DPDFKDLGALKPLPACEFEMGGSE [NETO1]	5.24 ± 0.22	5.27 ± 0.2		
DPLSDSDSMTSQAKPEALSSPKFR [ELOA2]	5.2 ± 0.23	5.27 ± 0.17		
DPPSSSEECPAHLLEDPLCADVIL [RHOBTB2]	4.89 ± 0.21	5.11 ± 0.23		
DPSTGCYMYYFQYLSKTYCVDATR [KMT5A]	2.25 ± 0.34	2.18 ± 0.61		

Sequence	protein stability index [1]	protein stability index [2]	protein stability index [3]	protein stability index [4]
DQDDRRTWDGRPLTMAATFDDCLY [GFOD1]	3.74 ± 0.34	3.99 ± 0.22		
DQNNVIENEETGEFSIDNYPTDNT [MIA2]	5.21 ± 0.74	5.5 ± 0.17		
DQTKSIVEKIQAKLPGIAKKKAE [RTN3]			5.46 ± 0.17	5.56 ± 0.22
DRFQVPTTEVNAWLVHRDPEGSVS [NFE2L1]	3.842 ± 0.034	4.5 ± 0.063		
DRKVLLKSDSPTGDVLLDETLKHI [GOLPH3L]	4.17 ± 0.16	4.54 ± 0.3		
DSAQVARLWGIRKNRPAMNYDKLS [SPDEF]	3.24 ± 0.22	3.35 ± 0.23		
DSDFRELHTAREFSEEDEEETTSQ [RTN2]	5.64 ± 0.17	5.5 ± 0.17		
DSIKTEVSGCPEDLTVGRAPTADD [NOL4L]	5.63 ± 0.34	5.68 ± 0.15		
DSRIRFGFLTVTNLGVENMNHYKK [PTPN9]	2.53 ± 0.19	2.7 ± 0.31		
DVHNRIVIRGLNTIPLFVQLLYSP [CTNNB1]	2.58 ± 0.58	2.73 ± 0.5		
DVNKTDHSQRTALHLAAQKALRTI [INVS]	3.06 ± 0.42	3.44 ± 0.43		
DYDLVLAEDEEMNRMHESMKLFDS [GNAI1]	4.42 ± 0.26	4.84 ± 0.33		
DYLPLTALVDGQIFCLHGGLSPSI [PPP2CA]	2.58 ± 0.93	2.21 ± 0.41		
DYNPPRVQLSDEMFVFQDGRWVNE [CBY2]	4.48 ± 0.23	4.37 ± 0.36		
DYSPYFKTIEDLRNKIIAATIENA [KRT16]	2.33 ± 0.22	2.44 ± 0.42		
DYWNLQKDYYPINESLASLPLRVS [CLPTM1]	2.4 ± 0.2	2.52 ± 0.17		
EAELRRRDTFYKEQLERIERKNAE [CHCHD6]	5.1 ± 0.41	5.34 ± 0.28		
EAFTLMDQNRDGFIDKEDLKDTYA [MYL5]	4.69 ± 0.25	4.88 ± 0.11		
